# From paper PMC8748927
# B1: A05 TCR (peptide)
# chain 1: CAEVLGGTSYGKLTF
# chain 2: CSASGRRGYGYTF
# Target: Mycobacterium tuberculosis cell wall sulfoglycolipid peptide on CD1b (human)
# Test: IFN-γ ELISPOT. CD4 clone of primary T cells transduced with the A05 TCR, with K562-CD1b. SGL was titrated from 1 µg/ml to 10^-7 µg/ml. This EC50 is stated to be 100-fold lower than that of an A05-CD8 T cell clone.; full-length, on cells
# Conditions: chains alpha TRAV13-2 TRAJ52 CDR3:beta TRBV20-1 TRBJ1-2 CDR3
binder,measurement,value
B1,EC50 of peptide,0.6 ng/mL
